Measurements as given in patent US20250011422A1 (UNIVERSITY OF FLORIDA RESEARCH FOUNDATION, published 2025).
Read-outs that look alike come from different tables or passages of the source.

Tests used:
[1] = molecular target: T1, human Siglec-6 on the cell surface (U937, MEC1-002, MEC1-hS6, primary CLL cells) (human, UniProt O43699 27-453); assay: flow cytometry titration on MEC1-hS6 cells, apparent Kd; aDART-Fc format, RC-1 clone
T1 construct: whole, on cells; Endogenous on U937, MEC1-002 and CLL cells; stably transfected in MEC1-hS6
Method: (§1) To determine whether T-biAb format affected the affinity to Siglec-6 or CD3 on the cell surface, T-biAbs were titrated and used to stain cells for flow cytometry (FIG. 17a).
(§2) Flow cytometry: Fabs were used to stain cells at a concentration of 2 μg/mL, unless otherwise noted. […] Samples were analyzed on either an Accuri C6 Plus or a LSRII flow cytometer (both from BD Biosciences).

[2] = molecular target: T1, human Siglec-6 on the cell surface …; assay: cell-based or functional assay
[3] = molecular target: T1, human Siglec-6 on the cell surface …; assay: cell-based or functional assay; remark: listed apart in the source
CD3 on human T cells [4] = molecular target: T2, CD3 on human T cells (human, UniProt P07766 23-207); assay: flow cytometry titration on primary human T cells, Alexa Fluor 647 anti-human Fc secondary antibody, percent biAb+ cells
T2 construct: whole, on cells; CD3 is a complex; also called CD3+ cells
Method: as §1, §2

Siglec-6 VC28-235-His6 = molecular target: T3, Siglec-6 VC28-235-His6 (human, UniProt O43699 28-235); assay: SPR, T-biAb immobilised via the Fc domain, soluble Siglec-6 (aa 28-235-His6) injected
T3 construct: It was deglycosylated with PNGase F for HDX-MS; also called soluble Siglec-6 (aa 28-235-His6); Siglec-6 ectodomain fragment
Method: (§3) Fab kinetics were determined by capturing Siglec-6-Fc (5-10 μg/mL) in HBS-EP+ buffer (Cytiva) and injecting titrated. […] Biacore evaluation software was used to calculate kₒₙ, koff, and Kd.

[5] = molecular target: T1, human Siglec-6 on the cell surface …; assay: flow cytometry titration on MEC1-hS6 cells, apparent Kd; scFv-Fc format, JML-1 clone
Method: as §1, §2

[6] = molecular target: T1, human Siglec-6 on the cell surface …; assay: cell-based or functional assay; remark: listed apart in the source
CD3 on human T cells [7] = molecular target: T2, CD3 on human T cells; assay: flow cytometry titration on primary human T cells
Method: as §1, §2

[8] = molecular target: T1, human Siglec-6 on the cell surface …; assay: flow cytometry titration on MEC1-hS6 cells, apparent Kd; scFv-Fc format, RC-1 clone
Method: as §1, §2

[9] = molecular target: T1, human Siglec-6 on the cell surface …; assay: cell-based or functional assay; remark: listed apart in the source
[10] = molecular target: T4, recombinant human Siglec-6 human IgG1-Fc fusion protein (human, UniProt O43699 27-347); assay: SPR, Siglec-6-Fc captured, soluble Fab injected
T4 construct: range 27-347; The methods describe the in-house construct as the Siglec-6 ectodomain at the C-terminus of the Fc (Fc-Siglec-6); The text uses hS6-Fc, Siglec-6-Fc and Fc-Siglec-6 for the SPR and ELISA antigen without telling the orientations apart; also called hS6-Fc; Fc-hS6; not shown: human IgG1 Fc, aa 99-329

Siglec-8 = molecular target: T5, Siglec-8 (Homo sapiens, UniProt Q9NYZ4); assay: ELISA, siglec-Fc fusion protein coated directly, anti-human Fab detection, absorbance 405-570 nm
T5 construct: Fc fusion protein; member of the siglec panel (group m8); also called human Siglec-8-Fc fusion protein

Siglec-2 (CD22) = molecular target: T6, Siglec-2 (CD22) (Homo sapiens, UniProt P20273); assay: as above
T6 construct: Fc fusion protein; member of the siglec panel (group m8); also called human Siglec-2-Fc fusion protein

human CD33 (Siglec-3) = human CD33 (Siglec-3) (human, UniProt P20138 18-259, limits assumed); assay: as above
[11] = molecular target: T7, rhesus macaque (Macaca mulatta) Siglec-6 Fc fusion protein (human; Macaca mulatta (rhesus macaque), UniProt A0A1D5QH63 16-333); assay: ELISA, siglec-Fc fusion protein coated directly (50 ng), anti-human F(ab')2-HRP detection, absorbance 405-570 nm
T7 construct: range 16-333; it is not the assay construct; also called rhesus Siglec-6; macaque Siglec-6; not shown: human IgG1 Fc, aa 99-329

Siglec-9 [12] = molecular target: T8, Siglec-9 (Homo sapiens, UniProt Q9Y336); assay: as above
T8 construct: Fc fusion protein; member of the siglec panel (group m8); also called human Siglec-9-Fc fusion protein

[13] = molecular target: T4, recombinant human Siglec-6 human …; assay: SPR, immobilized hS6-Fc, soluble Fab
Method: as §3

Siglec-9 [14] = molecular target: T8, Siglec-9; assay: ELISA, siglec-Fc fusion protein coated directly, anti-human Fab detection, absorbance 405-570 nm
[15] = molecular target: T4, recombinant human Siglec-6 human …; assay: SPR, monovalent Fab on Siglec-6-Fc fusion protein
Method: as §3

[16] = molecular target: T1, human Siglec-6 on the cell surface …; assay: flow cytometry of whole PBMC with biotinylated JML-1 IgG1, normalised to an isotype control
Method: as §2

T3 sequence (O43699 other isoform, or with tags, fused parts or gaps limits assumed): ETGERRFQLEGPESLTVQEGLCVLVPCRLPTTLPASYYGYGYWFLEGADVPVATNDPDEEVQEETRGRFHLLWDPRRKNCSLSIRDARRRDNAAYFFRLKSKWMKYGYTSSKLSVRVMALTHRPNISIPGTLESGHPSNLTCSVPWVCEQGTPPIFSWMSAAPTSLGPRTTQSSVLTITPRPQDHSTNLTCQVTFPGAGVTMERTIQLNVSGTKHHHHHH
T2 sequence (P07766 23-207): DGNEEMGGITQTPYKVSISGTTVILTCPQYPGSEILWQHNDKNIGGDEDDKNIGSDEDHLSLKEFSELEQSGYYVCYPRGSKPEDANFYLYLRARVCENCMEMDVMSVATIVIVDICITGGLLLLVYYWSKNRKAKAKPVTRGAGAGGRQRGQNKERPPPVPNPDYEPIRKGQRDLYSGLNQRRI
T1 sequence (O43699 27-453): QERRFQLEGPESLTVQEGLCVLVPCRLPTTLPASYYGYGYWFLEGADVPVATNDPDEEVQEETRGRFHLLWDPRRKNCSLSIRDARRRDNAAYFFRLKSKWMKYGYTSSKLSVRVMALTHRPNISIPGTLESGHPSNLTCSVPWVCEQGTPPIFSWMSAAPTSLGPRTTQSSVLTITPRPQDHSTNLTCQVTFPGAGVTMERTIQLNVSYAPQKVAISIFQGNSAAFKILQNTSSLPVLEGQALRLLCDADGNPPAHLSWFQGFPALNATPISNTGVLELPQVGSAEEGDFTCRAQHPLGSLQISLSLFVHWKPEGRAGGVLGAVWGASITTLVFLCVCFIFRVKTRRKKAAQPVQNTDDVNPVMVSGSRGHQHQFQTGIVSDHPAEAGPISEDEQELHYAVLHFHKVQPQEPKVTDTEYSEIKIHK
T4 sequence (O43699 27-347 limits assumed): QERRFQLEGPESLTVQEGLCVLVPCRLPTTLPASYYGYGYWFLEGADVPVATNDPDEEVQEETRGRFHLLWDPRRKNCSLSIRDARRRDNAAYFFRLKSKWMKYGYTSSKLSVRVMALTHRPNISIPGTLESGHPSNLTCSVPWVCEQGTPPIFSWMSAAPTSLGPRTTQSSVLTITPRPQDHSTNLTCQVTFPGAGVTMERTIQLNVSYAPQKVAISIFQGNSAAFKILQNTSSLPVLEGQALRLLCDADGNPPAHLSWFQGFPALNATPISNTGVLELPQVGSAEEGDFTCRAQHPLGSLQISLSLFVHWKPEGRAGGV
T5 sequence (Q9NYZ4 17-363 limits assumed): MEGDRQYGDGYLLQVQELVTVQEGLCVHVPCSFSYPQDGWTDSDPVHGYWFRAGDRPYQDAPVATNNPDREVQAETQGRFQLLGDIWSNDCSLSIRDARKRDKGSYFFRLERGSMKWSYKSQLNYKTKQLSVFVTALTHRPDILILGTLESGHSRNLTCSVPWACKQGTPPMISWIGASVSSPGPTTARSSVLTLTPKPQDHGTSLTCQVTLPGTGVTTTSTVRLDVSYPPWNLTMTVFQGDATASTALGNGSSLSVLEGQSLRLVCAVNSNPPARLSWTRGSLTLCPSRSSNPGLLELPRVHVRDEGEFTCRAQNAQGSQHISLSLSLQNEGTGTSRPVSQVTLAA
T8 sequence (Q9Y336 18-348 limits assumed): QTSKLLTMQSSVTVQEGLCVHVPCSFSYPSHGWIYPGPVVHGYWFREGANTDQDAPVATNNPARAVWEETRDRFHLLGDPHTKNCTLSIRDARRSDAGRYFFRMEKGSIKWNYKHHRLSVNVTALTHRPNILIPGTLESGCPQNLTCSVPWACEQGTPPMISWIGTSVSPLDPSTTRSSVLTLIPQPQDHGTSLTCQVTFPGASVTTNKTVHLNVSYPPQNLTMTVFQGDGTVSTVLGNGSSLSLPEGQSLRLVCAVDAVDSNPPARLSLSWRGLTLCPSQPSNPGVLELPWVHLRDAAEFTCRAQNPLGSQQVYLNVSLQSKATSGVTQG
Chain of human CD33 (Siglec-3) (P20138 18-259 limits assumed): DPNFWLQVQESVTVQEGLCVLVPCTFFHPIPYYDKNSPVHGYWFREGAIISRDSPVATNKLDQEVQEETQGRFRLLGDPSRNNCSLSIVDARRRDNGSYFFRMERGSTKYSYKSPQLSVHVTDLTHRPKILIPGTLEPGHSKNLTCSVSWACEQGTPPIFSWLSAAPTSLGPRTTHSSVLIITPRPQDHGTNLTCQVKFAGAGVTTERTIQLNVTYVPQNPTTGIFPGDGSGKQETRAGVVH
T7 sequence (A0A1D5QH63 entry or part of it): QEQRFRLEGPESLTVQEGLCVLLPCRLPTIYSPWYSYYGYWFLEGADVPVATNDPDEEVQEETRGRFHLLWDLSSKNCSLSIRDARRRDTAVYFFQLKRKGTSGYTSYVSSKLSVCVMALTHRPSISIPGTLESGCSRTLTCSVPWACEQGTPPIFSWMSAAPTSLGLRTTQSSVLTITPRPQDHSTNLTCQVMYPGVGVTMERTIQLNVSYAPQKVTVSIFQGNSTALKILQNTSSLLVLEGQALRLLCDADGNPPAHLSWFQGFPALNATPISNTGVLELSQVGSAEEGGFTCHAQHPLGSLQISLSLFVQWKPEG

B1: RC-1/V9 aDART-Fc (bispecific antibody)
chain 1: not shown
chain 2: DIQMTQSPSSLSASVGDRVTITCRASQDIRNYLNWYQQKPGKAPKLLIYYTSRLESGVPSRFSGSGSGTDYTLTISSLQPEDFATYYCQQGNTLPWTFGQGTKVEIKGGGGSGGGGEVQLVESGGGLVQPGRSLRLSCAASGFTFSSYGMHWVRQAPGKGLEWVAVISYDGSNKYYADSVKGRFTISRDNSKNTLYLQMNSLRAEDTAVYYCANYGMDVWGKGTTVTVSSASTKGKVAACKEKVAALKEKVAALKEKVAALKE
chain 3: DKTHTCPPCPAPEAAGGPSVFLFPPKPKDTLMISRTPEVTCVVVDVSHEDPEVKFNWYVDGVEVHNAKTKPREEQYNSTYRVVSVLTVLHQDWLNGKEYKCKVSNKALGAPIEKTISKAKGQPREPQVCTLPPSRDELTKNQVSLSCAVKGFYPSDIAVEWESNGQPENNYKTTPPVLDSDGSFFLVSKLTVDKSRWQQGNVFSCSVMHEALHNRFTQKSLSLSPGA
notes: Three-chain asymmetric DART-Fc; Chain 1 is RC-1vk-G3SG4-V9vh-ASTK-E-coil-G3-Fc knobs, chain 2 is V9vk-G4SG4-RC-1vh-ASTK-K-coil, and chain 3 is Fc holes; also called Siglec-6xCD3 T-biAb in aDART-Fc format
- Kd [1]: 0.79 nM
- EC50 (read off the curve), NFAT reporter activation with MEC1-002 cells [2]: ~40 pM
- directed T cell lysis of CLL cell lines, EC50 [3]: 0.12 pM
- fold increase in lysis potency compared to RC-1/V9 scFv-Fc [3]: 25 fold
- fold lower lysis EC50 than CD19/V9 scFv-Fc (MEC1-002, E:T 1:30, 48 h) [3]: ~3 fold
- fold lower lysis EC50 than RC-1/V9 scFv-Fc (MEC1-002, E:T 1:30, 48 h) [3]: > 10 fold
- specific lysis of MEC1-002 cells at E:T 1:30, EC50 [3]: 1.1 pM
- specific lysis of primary CLL cells by autologous T cells, day 11, median [3]: 24.9%
- EC50 (read off the curve) (CD3 on human T cells [4]): ~0.1 nM
- Kd (Siglec-6 VC28-235-His6): 0.15 nM
- koff (Siglec-6 VC28-235-His6): 0.00045 s⁻¹
- kon (Siglec-6 VC28-235-His6): 2.96e+06 M⁻¹ s⁻¹

B2: JML-1/V9 scFv-Fc (bispecific antibody)
chain 1: not shown
chain 2: EVQLVESGGGLVQPGGSLRLSCAASGYSFTGYTMNWVRQAPGKGLEWVALINPYKGVSTYNQKFKDRFTISVDKSKNTAYLQMNSLRAEDTAVYYCARSGYYGDSDWYFDVWGQGTLVTVSSGGGGSGGGGSGGGGSDIQMTQSPSSLSASVGDRVTITCRASQDIRNYLNWYQQKPGKAPKLLIYYTSRLESGVPSRFSGSGSGTDYTLTISSLQPEDFATYYCQQGNTLPWTFGQGTKVEIKEPKSSDKTHTCPPCPAPELLGGPSVFLFPPKPKDTLMISRTPEVTCVVVDVSHEDPEVKFNWYVDGVEVHNAKTKPREEQYASTYRVVSVLTVLHQDWLNGKEYKCKVSNKALPAPIEKTISKAKGQPREPQVCTLPPSRDELTKNQVSLSCAVKGFYPSDIAVEWESNGQPENNYKTTPPVLDSDGSFFLVSKLTVDKSRWQQGNVFSCSVMHEALHNHYTQKSLSLSPGA
notes: Knobs-into-holes heterodimer of the JML-1 scFv-Fc knob arm and the shared anti-CD3 V9 scFv-Fc hole arm; Both arms carry N297A; also called JML-1 clone T-biAb
- specific lysis of MEC1-hS6 by healthy donor T cells, EC50 [3]: 2.4 pM
- specific lysis of primary CLL cells by autologous T cells, day 11, median [3]: 8.8%
- EC50 (read off the curve) (CD3 on human T cells [4]): ~0.07 nM
- Kd [5]: 0.61 nM
- EC50 (read off the curve), NFAT reporter activation with MEC1-002 cells [6]: ~80 pM

B3: RC-1/V9 scFv-Fc (bispecific antibody)
chain 1: not shown
chain 2: B2 chain 2
notes: Knobs-into-holes heterodimer of the RC-1 scFv-Fc knob arm and the shared anti-CD3 V9 scFv-Fc hole arm; also called RC-1 clone in scFv-Fc format
- specific lysis of MEC1-hS6 by healthy donor T cells, EC50 [3]: 3 pM
- specific lysis of primary CLL cells by autologous T cells, day 11, median [3]: 2.4%
- fold more potent binding than the aDART-Fc (CD3 on human T cells [7]): ~2 fold
- EC50 (read off the curve) (CD3 on human T cells [4]): ~0.05 nM
- EC50 (read off the curve), NFAT reporter activation with MEC1-002 cells [6]: ~100 pM
- Kd [8]: 1.1 nM
- Kd (Siglec-6 VC28-235-His6): 0.1 nM
- koff (Siglec-6 VC28-235-His6): 0.00031 s⁻¹
- kon (Siglec-6 VC28-235-His6): 3.05e+06 M⁻¹ s⁻¹

B4: V9/RC-1 sDART-Fc (bispecific antibody)
chain 1: DIQMTQSPSSLSASVGDRVTITCRASQDIRNYLNWYQQKPGKAPKLLIYYTSRLESGVPSRFSGSGSGTDYTLTISSLQPEDFATYYCQQGNTLPWTFGQGTKVEIKGGGSGGGGEVQLVESGGGLVQPGRSLRLSCAASGFTFSSYGMHWVRQAPGKGLEWVAVISYDGSNKYYADSVKGRFTISRDNSKNTLYLQMNSLRAEDTAVYYCANYGMDVWGKGTTVTVSSGCPPCPAPEAAGGPSVFLFPPKPKDTLMISRTPEVTCVVVDVSHEDPEVKFNWYVDGVEVHNAKTKPREEQYNSTYRVVSVLTVLHQDWLNGKEYKCKVSNKALGAPIEKTISKAKGQPREPQVCTLPPSRDELTKNQVSLSCAVKGFYPSDIAVEWESNGQPENNYKTTPPVLDSDGSFFLVSKLTVDKSRWQQGNVFSCSVMHEALHNRFTQKSLSLSPGA
chain 2: not shown
notes: Two-chain symmetric DART-Fc
- EC50, lysis of MEC1-hS6 cells by human T cells (E:T 1:1, luciferase) [9]: 0.69 pM
- EC50 (read off the curve) (CD3 on human T cells [4]): ~0.3 nM
- Kd (Siglec-6 VC28-235-His6): 0.07 nM
- koff (Siglec-6 VC28-235-His6): 0.0003 s⁻¹
- kon (Siglec-6 VC28-235-His6): 4.14e+06 M⁻¹ s⁻¹

B5: RC-1 Fab (Fab, V domains shown)
VH: EVQLVESGGGLVQPGRSLRLSCAASGFTFSSYGMHWVRQAPGKGLEWVAVISYDGSNKYYADSVKGRFTISRDNSKNTLYLQMNSLRAEDTAVYYCANYGMDVWGKGTTVTVSS
VL: not shown
notes: Human Fab (kappa) from the post-alloHSCT phage library, expressed in E. coli
- T1/2 [10]: 37 min
- binding result (Siglec-8): no binding (tested: 75 ng Fab per well)
- binding result (Siglec-2 (CD22)): no binding (tested: 75 ng Fab per well)
- binding result (human CD33 (Siglec-3)): no binding (tested: 75 ng Fab per well)
- binding result [11]: no binding (tested: 75 ng Fab per well)
- binding result (Siglec-9 [12]): no binding (tested: 75 ng Fab per well)
- Kd [13]: 0.49 nM

B6: RC-2 Fab (Fab, V domains shown)
VH: EVQLLESGGGVVQPGRSLRLSCAASGFTFSSYGMHWVRQAPGKGLEWVAVISYDGSNKHYADSVKGRFTISRDNSKNTLYLQMNSLRAEDTAVYYCARGGQTIDIWGQGTMVTVSS
VL: not shown
notes: Human Fab (kappa), expressed in E. coli
- T1/2 [10]: 27 min
- Kd [13]: 2.76 nM

B7: ARN-1 Fab (Fab, V domains shown)
VH: EVQLVQSGGGVVQPGRSLTLSCAAFGFTFSTYTMHWVRQAPGKGLEWVAVISYDEGFKYYADSVKGRFTISRDISKNTLYLQMNSLRTEDTAVYYCAREASAFDIWGQGTMVTVSS
VL: SYVLTQPPLVSVSPGQTARITCSGENWGQKYASWYQQKPGQSPMLIIYEDTKRPSEIPERFSGSNSGSTVTLTISGTQPMDEADYYCQAWDDSTGGVFGTGTKVTVL
notes: Human Fab from a naive human Fab library
- binding result (Siglec-8): no binding (tested: 75 ng Fab per well)
- binding result (Siglec-2 (CD22)): no binding (tested: 75 ng Fab per well)
- binding result (human CD33 (Siglec-3)): no binding (tested: 75 ng Fab per well)
- binding result (Siglec-9 [14]): no binding (tested: 75 ng Fab per well)
- Kd [15]: 2.63 nM
- koff [15]: 0.000268 s⁻¹
- kon [15]: 100000 M⁻¹ s⁻¹

B8: JML-1 biotinylated IgG1 (antibody, V domains shown)
VH: KVQLLESGGGLVQPGRSLRLSCAASGFTFDDYGMHWVRQAPGKGLEWVSGISWNSGSIGYADSVKGRFTISRDNSKNTLYLQMNSLRAEDTAVYYCARGGQTIDIWGQGTMVTVSS
VL: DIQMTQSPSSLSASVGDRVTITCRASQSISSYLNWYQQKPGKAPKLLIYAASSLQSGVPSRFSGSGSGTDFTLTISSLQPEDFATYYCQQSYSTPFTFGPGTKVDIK
modifications: Biotinylated IgG1; the biotin sites are not stated and are not carried in the letters.
- binding result [16]: binds
